The results in this text go back to PMC3902905.

Test [1] concerns the target Egg nucleoplasmin (eNP) from Xenopus laevis (X. laevis) (UniProt P05221). Briefly: AUC; sedimentation equilibrium, Buffer I (0.24 M NaCl), NP 0.3 µM, 4°C, 8000 and 12 000 rpm, fit to a single ideal species.
The target is the same in test [2]. The test can be described thus: co-sedimentation; 5–20% sucrose gradient in Buffer I (240 mM NaCl), NP 0.9 µM mixed with histones, 1 h 25°C, 29 000 rpm 22 h 4°C; fractions by A230 and SDS–PAGE.
Test [3] shares this target. Briefly: native gel or EMSA; 2D electrophoresis (4–16% native PAGE, then 12.5% SDS–PAGE) of the high molecular mass complex and densitometry with known amounts of each protein as standards; Buffer I, 240 mM NaCl.

Sequence of UniProt P05221 (P05221 whole entry): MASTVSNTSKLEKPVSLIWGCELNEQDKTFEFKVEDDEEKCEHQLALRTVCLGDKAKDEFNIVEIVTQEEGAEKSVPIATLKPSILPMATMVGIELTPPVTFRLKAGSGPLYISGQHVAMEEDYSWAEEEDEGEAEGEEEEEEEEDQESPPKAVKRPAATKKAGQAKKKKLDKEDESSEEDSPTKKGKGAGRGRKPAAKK

In turn, “Natural source histone octamer from chicken erythrocyte chromatin (from UniProt P70081 1-103) (complex)” registered a stoichiometry N (eNP pentamers per histone octamer) in test [1] of 2. For the same substance, the values for the stoichiometry N (octamer per NP pentamer) in test [2] and in test [3] were 0.5 and 0.54, respectively.

Take “Natural source histones H3-H4 from chicken erythrocyte chromatin (from UniProt P84229 1-136; P70081 1-103) (complex)”: in test [3], the stoichiometry N (H3-H4 dimers per NP pentamer) stood at 2.1.
